Reference: patent US20040235112A1

Target: JNKK (UniProt P45985)
Experiment: cell-based or functional assay

Chain of JNKK (P45985 whole entry): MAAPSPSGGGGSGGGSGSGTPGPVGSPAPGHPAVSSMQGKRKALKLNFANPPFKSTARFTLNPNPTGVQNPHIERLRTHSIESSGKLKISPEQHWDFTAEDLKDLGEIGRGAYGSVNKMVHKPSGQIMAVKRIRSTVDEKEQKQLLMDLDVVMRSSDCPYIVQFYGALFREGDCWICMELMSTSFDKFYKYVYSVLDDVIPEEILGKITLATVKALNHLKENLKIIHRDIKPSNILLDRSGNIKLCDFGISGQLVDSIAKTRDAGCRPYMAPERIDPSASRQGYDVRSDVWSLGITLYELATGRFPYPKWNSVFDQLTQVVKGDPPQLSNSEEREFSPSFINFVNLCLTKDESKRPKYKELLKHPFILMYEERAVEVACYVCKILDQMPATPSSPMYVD

MEKK (enzyme)
JNKK activation in COS cells cotransfected with MEKK expression vector (immune complex kinase assay with GST-JNK2) (ng expression vector): 125
